Laboratory results from PMC4761994, “Unraveling and engineering the production of 23,24-bisnorcholenic steroids in sterol metabolism” (Scientific Reports, 2016).

Key:
Hsd4AMN = molecular target: T1, Hsd4AMN (Mycolicibacterium neoaurum, UniProt A0A0H3W613); test: NADH oxidation at […] nm, Michaelis-Menten fit; assay type: biochemical; conditions: NADH 125 μM; 125 mM Tris-HCl pH 8.0; 30 °C
T1 construct: gene hsd4A

[1] = tested on: CC(O)CC(=O)SCCNC(=O)CCNC(=O)[C@H](O)C(C)(C)COP(=O)(O)OP(=O)(O)OC[C@H]1O[C@@H](n2cnc3c(N)ncnc32)[C@H](O)[C@@H]1OP(=O)(O)O; test: purified protein; assay type: biochemical, Mycolicibacterium neoaurum; conditions: NAD+ 125 μM, 125 mM glycine-NaOH pH 9.0, 30 °C, DL mixture of substrate, pH 9.0
[2] = tested on: C[C@]12CC[C@H]3[C@@H](CCC4=CC(=O)C=C[C@@]43C)[C@@H]1CC[C@@H]2O; test: purified protein; assay type: biochemical, Mycolicibacterium neoaurum; conditions: NAD+ 100 μM, 100 mM Tris-HCl pH 7.8, 30 °C, pH 7.8
[3] = tested on: C[C@]12CC[C@H]3[C@@H](CCC4=CC(=O)CC[C@@]43C)[C@@H]1CC[C@@H]2O; test: purified protein; assay type: biochemical, Mycolicibacterium neoaurum; conditions: NAD+ 100 μM, 100 mM Tris-HCl pH 7.8, 30 °C, pH 7.8

Molecule CC(=O)CC(=O)SCCNC(=O)CCNC(=O)[C@H](O)C(C)(C)COP(=O)(O)OP(=O)(O)OC[C@H]1O[C@@H](n2cnc3c(N)ncnc32)[C@H](O)[C@@H]1OP(=O)(O)O [acetoacetyl-CoA] has a Km (Hsd4AMN) of 101 ± 27 µM.

In the case of “Hsd4AMN (Mycolicibacterium neoaurum ATCC 25795)”, the Km [1] is reported as 124 ± 39 µM, the Vmax [1] is reported as 0.113 µmol/min/mg and the Km [2] is reported as 19 ± 4 µM. The Vmax [2] was 0.217 µmol/min/mg, the Km [3] was 23 ± 7 µM and the Vmax [3] was 0.169 µmol/min/mg.
